Assay results from the nanobody polyreactivity screen of Harvey et al. (2022).

Experiment: yeast display, Sf9 membrane polyspecificity reagent, FACS + sequencing; frameworks hold sequencing errors
How it was run: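 A synthetic nanobody library was expressed on Saccharomyces cerevisiae BJ5465 by galactose induction for 36–48 hours. The library was stained for 1 hour at 4 °C with 10% biotinylated, detergent-solubilized Sf9 membrane reagent and enriched with streptavidin microbeads before FACS. Low and high (top ~1%) gates were set on anti-HA fluorescence for expression and streptavidin fluorescence for reagent binding, and each polyreactivity label reflects the gate of origin.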

Row | Sequence | polyreactivity (PSR sort gate)
1 | QVQLEESGGGLVQAGGSLRLSCAASGFTFYYYTMGWYRQAPGKERELVAAITWRGGSTNYADSVKGRFTISRDNAKNTVYLQMNSLKPEEPAVYYCAAVTYWFWPGMDYWGQGTQVTVSS | low polyreactivity
2 | QVQLVDSGGGLVQAGASLRLSCAASGRTFYPYAMGWYRQAPAKERELDAAISSKGGITYYADSVKGRFTISRDNAKNTVYLQMNSLNPEDTAVYYCAALYTGESGYWGQGTQVSVSS | high polyreactivity
3 | QVQLVESGGGLVQAGGSLRLSSAASGSIFERYTMAWYRLAPGKERELVAVISTGGGSTNYADSVKGRFTFSRDNAKNTVYLQMNSLKPADTAVYYCAASYGYYRYGYWGQGTQVNVSS | high polyreactivity
4 | QVHLVESGGGLVQAGGSLRLSCAASGRIFSLNAMGCDRQAPGKERELVAAISTGGASTYYADSVKGRFTISRDNAKNTVYLQMNSLKPEDTAVYSCAADLGYEYDYWGQGTQVTVSS | high polyreactivity
5 | QVQLVESGGGLVQAGGSLRLSCAASGSIFRSYAMGWYSPSPGKERELVAAITRSGGSTYYADSVKGRFTISRDNAKNTVYLQMNSLKPEDTAVYYCAAEYYSYTWGWGHGYWGQGTQVTVSS | high polyreactivity
6 | QVQLVQSGGGLVQAGGSLRLTCAASGRTFVVYAMGWYRQAPGKERQLVASISSIGEITNYADSVKGRFTISRDYAKNTVYLQMNSLKQEDTAVYYCTAPICGSYNTRRAAEYDYWGQGTQVTVSS | low polyreactivity
7 | QDQLVESGGGLVQAGGSLRLSCAASGRIFDRYAMGWYRQAPGKERELVAAISGRTGSTYYADSVKGRFTISRDNAKNTVYLQMNSLKPEDTAVYYCAKRSYWDGVRYDYWGQGTQVTVSS | high polyreactivity
8 | QVHLVESVGGLVQAGGSLRLSCAASGSIFDVYTMGCYRQAPGKERELVAAINTGGGSKYYADSVKGRFTISRDNAKNTVYLQMNSLKPEDTAVYYCAASVYHYGPLYYWGQGTQVTVSS | low polyreactivity
9 | QVQLVESGGGLVQAGGSLRLSCAASGRIFRTYAMGWYRQAPGKERELVDAISYSGGSTFYADSVKRRFTISRDNAKNTVYLQMNSLKPEYTAVYYCAADSRAKRYYWGQGTQVTVSS | high polyreactivity
10 | QVQLVESGGGLVQAGGSLRLSCAASGITFTYNAMGWYRQAPGKERELVASITLSGGNTYYADSVTGRFTISRDNAKNTVYLQMNSLKPEDTAVYYCAADDRGSSYGHFTVEYGYWGQGTQVTVSS | low polyreactivity
11 | QVQLVESGGRLVQAGGSIRLRCAASGNTFVYNDMGWYRQAPGKERELVADIRYSGSTYYADSVKGRFTISRDNATNTVYLEMNSLKPEDTAVYYCAKAYYVLSWMGYWGQGTQVTVSS | low polyreactivity
12 | QVQLQESCGGLVQEAGSLRLSCAASGNISPPADMGWYRQAPGKQRELVASIGTGGTTNYADSEKGRFTISRDNAKNTVYLQMNSLKPEDSAVYYCNVDIGVYAYESDYWGQGTQVTVSS | low polyreactivity
13 | QVQLVESGGGLVQAGGSLRLSCAASGTILSFNAMAWYRQAPGKERELVAAMSRGGSTNYADSVKGRFTISRDNEKNTVYLQMNCLIPEDTAVYYCAALRPYGKEDVSDGGMDYWGQGTQVTVSS | high polyreactivity
14 | QVQLVESGGGLVQAGGSLRLSCASSGFIFPLYAMGWYRKAPGKERELVAAITWRGDTTSYADSVKGRFTISRDNAKNTVYLLMIRLKPEDNAVYYCNARGYFGWYAMDYWGQGTQVTVSS | high polyreactivity
15 | QVQLVESGGGLVQAGGSLRLSCAASGRIFVGYAMGLYRQAPGKEREFVATITFSGSSTYYADSVKGRFTISRDNAKNTVYIQMNSLKPEDTAVYYCAVTLEDYTYVYWGQGTQVTVSS | low polyreactivity
16 | QVQLVESGGGLVQAGGSLRLSCAASGSIFQGNVMGWYRQAPGKERELVAAIRNSGGTTYYADSVKGRFTISRDNAKNTVYLQMNSLKPEDTAVYYCAARYINRYPKAQPTDRSIYYWGQGTQVTVSS | high polyreactivity
17 | QVQLVESGVGLVQAGGSLRLSCAASGRTFGVYAMGWYRQAPGKESTYYADSVKGRFTISRDNAKNTVYLQMNSLKPEDTAVYYCNARGGFGYITMDYWGQGTQVTVSS | low polyreactivity
18 | QVQLVESGGGLVQAGGTLRLSCAASGIIFGVYAMGWYRQAPGKERELVAAIDGNGSSTYYADSVKGRFTISRDTAKNTVYLQMNSLKPEDTAVYYCPAGYWSYLYYWYDFDYWGQGTQVTVSS | low polyreactivity
19 | QVQLVESGGGLVQAGGSLRLSCAASGRTLDRYAMGWYSPAPGKERELVAAIRWSTGSTYYADSVKGRFTISRDNAKNTVYLQMNSLKPEDTAVYYCAAELSYWWYFAMDYWGQGTQVTVSS | high polyreactivity
20 | QVQLVESGGGLVQAGGSLRLSCAASGITFYGYAMGWYRQAPGKERELVAAISESGGSTYYADSVKGRFTISRDNAKNSVYLQMNRLKEEDTAVYYCASQGYSVYWYSNYWGQCTQVTVSS | low polyreactivity
21 | QVQLVESGGGLVQAGGSLRLTCAASGLTFDSNVMGWYREAPGKERELVAANTYSGRTYYADSEKGRFTISRDNAKNTVYLQMNSLKPEDTAVYYCAARNLAYTRKGYYYWGQGTQVTVSS | high polyreactivity

Row | Sequence | polyreactivity (PSR sort gate)
22 | QVQLVESGGGLVQAGCSLRLTCAASGSIFRTNAMGWSRQAPGKERELVAAITGSGGSTYYADSVKGRFTISRDNAKNTVYLQMNSLKPEDTAVYYCAAEFGSFVSPYNYYFWGLGTQVTVSS | low polyreactivity
23 | QVQLVESGGGLVQAGGSLRLSCAASGSIFYWYAMGWYRQAPGKERELVAAIDISDDTYYADSVKGRFTISRDNAKNTVYLQMNSLKPEDTAVYYCAARTTRWFYEYDWGQGTQVTVSS | high polyreactivity
24 | QFQLVESGGGLVQAGGSLRLSCAASGRTISHNVMGWYRQAPGKEWELVAAISRNGGRTYYADSVKGRFTISRDNAKNTVYLQLNSLKTEDTAVYYCAAEAYPEYYYWGLGTQVTVSS | high polyreactivity
25 | QVQLVESGGGLVQAGGSLRLSCAASGSIFFYYAMGWYRQAPGKERELVAAINSDGSTNYADSVKGRFTISRDNAKNTVYLQMNSVKPEDTAVYYCAADYVYYYHEYDYWGQGTQVTVSS | low polyreactivity
26 | QVQLVESGGGLVQAGGSLRLSCAASGFIFRYYAMGWYRQAPGKERELVAAIDYSGGSTNYADSVKGRFTISRDNAKNTVYLQMNSLKPEDTAVYYYDYWGQGTQVTVSS | low polyreactivity
27 | QVQLVESGGGLVQAGGSLRLSCAASGGIFFINAMGWYRQAPGKERELVAAISISDGSTYYADSVKGRFTISRDNAKNTVYLQMNSLKPEDTAVYYCAAEGFDWDSPEMEYWGQGTQVTVSS | low polyreactivity
28 | QVQLVESGGGLVQAGGSLRLSCAASGSTLGYYGMGWYRQAPGKERELVAAISGRGTSTYYADSVKGRCTISRDNAKNTVYLQMNSLKPEDTAVYYCAAQLFRELYWGQGTQVTVSS | high polyreactivity
29 | QVQLVESGGGLVQAGGSLRLSCAASGSTFAPNAMGWYRQAPGKEKEIVSGITWGDSTYYADSVKGRFTISRDNAKNTVYLQMNSLKPEDTAVYYCAVRWVWNPWGIQGDWAVDYDYWGQGTQVTVSS | low polyreactivity
30 | QVQLVESGGGLVQAGGSLRLSCAASGSIIKRNAKGWYRQAPGKERELVASISSGGSTKYADSVKGRFTISRDNAKNTVYLQMNSLKPEDTAVYYCAKRSSQTRRAYDYWGQGTQVTVSS | low polyreactivity
31 | QVQLVESGGGLVQAGGSLRLSCAASGSIFRSYAMGWYRQAPGNERELVAALSGRGSNTYYADSVKGRFTISRDNAKNTVYLQMNSLKPEDTAVYYGATRRHYGSTRSYDYWGQGTQVTVSS | high polyreactivity
32 | QVQLVESGGGLVQAGGSLRLSCAASGFTFVYYAMGWYRQAPGKERELVAAISSGGRTYYADSVKGRFTISRDNAKNTVYLQMNSLKPEDTAGYYCNKKVGSYYRSYYYWGQGTQVTVSS | high polyreactivity
33 | QVQLVESGGGLVQAGGSLRLSCAASGSIFSQYVMGWYRQAPGKERELVAAISWSGGHTYYADSVKGRFTISRDNAKNTVYLQMNSLKPEDTAVYYCRAFFRRDYWGQGTQVTVSS | high polyreactivity
34 | QVQLVEAGGGLVHAGGSLRLSCAASGRIFLAYAMGCYRQAPGKEMELVATIRSGGSTTYADSVKGRFTISRDNAKNSVYLQMNSLKTEDTAVYYCARRYQRKKPVFPHSQGAYDYWGQGTQVTVSS | low polyreactivity
35 | QVQLVESGGGLVQAGGSLRLSCAASGFTFSPYAMGWYRQAPGKERELVAAISSSGGSTYYADSVKGRFTISRDNAKNTVYLQMNSLKPEDTAVYYCATQGTRRPGKFYYWGQGTQVTVSS | high polyreactivity
36 | QVQLVESGGGLVQAGGSLRLSCAASGRIFLFYAMGWYRPAPGKERELVAAISVRGGSTYYADSVKGRFTISRDNAKNTVYLQMNSLKPEDTAVYYCAAKQKHTQQYGYWGQGTQVTVSS | high polyreactivity
37 | QVQLVESGGGLVQAGGSLRLSCAASGLIFPGYAMGWYRQAPGKERELVAAISWSGGTTYYADSVKGRFTISRDNAKNTVYLQMNSLKPEDTAVYYCNAVYLQGYDYWGQGTQVTVSS | low polyreactivity
38 | QVQLVESGGGLVQAGGSLRLSCAASGFIFNIYAMGWYRQAPGKERELVAAITDDGSTNYADSVKGRFTISRDNAKNTVYLQMNSLKPEDTAVYYCAADDYYKFDYWGQGTQVTVSS | low polyreactivity
39 | QVQLVESGGGLVQAGGSLRLSCAASGSTFSGNAMGWYRQAPGKEMEMVAAISGRGGSTYYADSVKGRFTISRDNAKNTVFLQMKSLKPEDTAVYYCAKRRNTRGAYGYWGQGTQVTVSS | high polyreactivity
40 | QVQLLESGGGLVQAGGSRRLSCAASGRTFIFNAMGWYRQAPGKETELVAAISSGGGTNYADSEKGRFTISRDNAKNTVYLQMNSLKPEDTAVYYCARGSYKYRHSYDYWGQGTEVTVSS | low polyreactivity
41 | QVQLVESGGGLVQAGGSLRLSCASSGRTFRYNAMGWYIQAPGKESELVAAISRSGGRTYYADSVKGRFTISRDNAKNTVYLQMNSLKPEDTAVYYCAAYYYTAGDSSSRYDYWGQGTQVTVSS | high polyreactivity
